Blank lines part the entries; values can stand above or below the binder they belong to.
Tests used:
GPC3 [1] = target: T1, GPC3 (human, UniProt P51654); experiment: FACS, GPC3-CHO-K1 cells
GPC3 [2] = target: T1, GPC3; experiment: FACS, Huh-7 cells
GPC3 [3] = target: T1, GPC3; experiment: FACS, HepG2 cells
GPC3 [4] = target: T1, GPC3; experiment: FACS, HepG2 cells; remark: listed apart in the source

EC50 (GPC3 [1]): 1.46 nM
EC50 (GPC3 [2]): 1.18 nM
EC50 (GPC3 [3]): 1.25 nM
B1: Y035 (antibody, V domains shown)
VH: EVQLVQSGAEVKKPGASVKVSCKASGYTHSDYEMHWVRQAPGQGLEWMGAIHPGSGDTAYNQRFKGRVTITADKSTSTAYMELSSLRSEDTAVYYCARFYSYAYWGQGTLVTVSA
VL: DIVMTQTPLSLPVTPGEPASISCRSSQSLVHSNGNTYLQWYLQWYLQKPGQSPQLLIYKVSNRFSGVPDRFSGSGSGTDFTLKISRVEAEDVGVYYCSQSIYVPYTFGQGTKLEIKR

EC50 (GPC3 [1]): 0.956 nM
EC50 (GPC3 [2]): 0.953 nM
EC50 (GPC3 [4]): 0.269 µg/mL
EC50 (GPC3 [3]): 0.745 nM
B2: GC33 (antibody, V domains shown)
VH: QVQLVQSGAEVKKPGASVKVSCKASGYTFTDYEMHWVRQAPGQGLEWMGALDPKTGDTAYSQKFKGRVTLTADKSTSTAYMELSSLTSEDTAVYYCTRFYSYTYWGQGTLVTVSS
VL: DVVMTQSPLSLPVTPGEPASISCRSSQSLVHSNRNTYLHWYLQKPGQSPQLLIYKVSNRFSGVPDRFSGSGSGTDFTLKISRVEAEDVGVYYCSQNTHVPPTFGQGTKLEIKR

EC50 (GPC3 [4]): 0.143 µg/mL
B3: GC33-ZLA (antibody, V domains shown)
VH: B2 VH
VL: B2 VL
modifications: ADC, ZLA conjugate of GC33

EC50 (GPC3 [4]): 0.112 µg/mL
B4: GC33-L4-D4 (antibody, V domains shown)
VH: B2 VH
VL: B2 VL
modifications: ADC, MC-MMAF conjugate of GC33

Reference: patent US20260345809 (published 2026)
